Data on two molecules can be found in US20170281807A1 (UNIVERSITY OF TENNESSEE RESEARCH FOUNDATION, published 2017).

Sequences and labels used below:
B1: peptide p66 (11-1F4 peptope) (peptide)
peptide: KAQKAQAKQAKQAQKAQKAQAKQAKQAQKAQKAQAKQAKQSVTVVTKHYAAFPENLLI
modifications: also: 125I-labeled in pull-down and in vivo work
notes: also called peptope p66
B2: murine 11-1F4 monoclonal antibody (antibody, V domains shown)
VH: QVQLKESGPGLVAPSQSLSITCTVSGFSLSSYGVSWVRQPPGKGLEWLGVIWGDGSTNYHPNLMSRLSISKDISKSQVLFKLNSLQTDDTATYYCVTLDYWGQGTSVTVSS
VL: DVVMTQTPLSLPVSLGDQASISCRSSQSLVHRNGNTYLHWYLQKPGQSPKLLIYKVSNRFSGVPDRFSGSGSGTDFTLKISRVEAEDLGLYFCFQTTYVPNTFGGGTKLEIK

Ends that are not written are not given here.

In experiment [1] the target is T1, synthetic Aβ(1-40) amyloid fibrils (UniProt P05067 672-711).
T1 construct: domain: Aβ(1-40); Fibrillar aggregate; 1-40 counts on the Aβ peptide, not on the precursor
T1 sequence (P05067 672-711 limits assumed): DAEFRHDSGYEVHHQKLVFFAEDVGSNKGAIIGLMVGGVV
In words: EuLISA, fibrils coated, p66 added and washed, detected by 11-1F4.

The target of the next experiment is BSA (UniProt P02769 25-607). As to the kind of experiment: EuLISA, BSA-blocked wells without fibrils, p66 then 11-1F4.
BSA, sequence (P02769 25-607 limits assumed): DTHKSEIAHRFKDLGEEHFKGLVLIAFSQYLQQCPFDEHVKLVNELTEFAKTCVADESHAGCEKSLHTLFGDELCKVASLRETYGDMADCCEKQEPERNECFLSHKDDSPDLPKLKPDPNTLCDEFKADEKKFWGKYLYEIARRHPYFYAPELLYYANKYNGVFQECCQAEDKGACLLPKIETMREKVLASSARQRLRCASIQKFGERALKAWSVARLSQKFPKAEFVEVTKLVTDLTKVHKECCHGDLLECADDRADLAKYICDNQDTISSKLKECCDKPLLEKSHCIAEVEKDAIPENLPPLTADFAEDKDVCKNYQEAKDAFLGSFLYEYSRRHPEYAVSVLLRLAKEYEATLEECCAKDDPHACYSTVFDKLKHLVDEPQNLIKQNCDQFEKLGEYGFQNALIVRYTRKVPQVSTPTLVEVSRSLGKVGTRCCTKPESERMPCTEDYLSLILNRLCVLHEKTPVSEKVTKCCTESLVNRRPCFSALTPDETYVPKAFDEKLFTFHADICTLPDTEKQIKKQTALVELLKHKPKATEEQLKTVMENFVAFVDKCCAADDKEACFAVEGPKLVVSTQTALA
For experiment [2], the target named is B1. In words: EuLISA, peptide coated, 11-1F4 titrated from 100 nM.

B1: the binding result in experiment [1] is reported as “binds”; in the experiment with BSA, “no binding (tested: 100 µl of a 0.83 mM stock solution)”. For the molecule B2, in experiment [2], the EC50 – broadly, the concentration giving half of the maximal effect – was around 0.5 nM.
